Biological target: the molecule itself
Test: SEC; size-exclusion HPLC, TSK G3000 SWXL column, PBS with 200 mM NaCl, 1 ml/min, 50 ug protein at about 1 mg/ml; native conditions; molecular weight standards

B1: Fc fragment of human IgG1 with the CysP2 and CysP4 disulfide bonds combined (domain or fragment)
chain: EFTCPPCPAPELLGGPSVFLFPPKPKDTLMISRTPEVTCVVVDVSHEDPEVKFNWYVDGVEVHNAKTKPREEQYNSTYRVVSVLTVLHQDWLNGKEYKCKVSNKALPAPIEKTISKAKGQCREPQVYTLPPSRDELTKNQVSLTCLVKGFYPCDIAVEWESNGQPENNYKTTPCVLDSDGSFFLYSKLTVDKSRWQQGNVFSCSVMHECLHNHYTQKSLSLSPGK
modifications: N-linked glycosylation at residue Asn297; engineered intradomain disulfide bonds between Cys343 and Cys431 and between Cys375 and Cys396
notes: 2 extra amino acid residues at the N-terminal site due to the EcoRI site used for cloning; the substitutions are still to be applied; Fc fragment of the human IgG1 heavy chain constant region in which the CysP2 and CysP4 mutations are combined; the first letter T is position 225. numbers count on: Kabat EU numbering; Primers are in File S1; also called CysP24; FcCysP24; source: Pichia pastoris …
- stoichiometry N: 2
